Data taken from IntAct's records for PubMed 29688405.

Experiments:
frem1_human FREM1 = frem1_human FREM1 (UniProt Q5H8C1)
frem2_human FREM2 = frem2_human FREM2 (UniProt Q5SZK8)

UniProt Q5H8C1, sequence (Q5H8C1 whole entry): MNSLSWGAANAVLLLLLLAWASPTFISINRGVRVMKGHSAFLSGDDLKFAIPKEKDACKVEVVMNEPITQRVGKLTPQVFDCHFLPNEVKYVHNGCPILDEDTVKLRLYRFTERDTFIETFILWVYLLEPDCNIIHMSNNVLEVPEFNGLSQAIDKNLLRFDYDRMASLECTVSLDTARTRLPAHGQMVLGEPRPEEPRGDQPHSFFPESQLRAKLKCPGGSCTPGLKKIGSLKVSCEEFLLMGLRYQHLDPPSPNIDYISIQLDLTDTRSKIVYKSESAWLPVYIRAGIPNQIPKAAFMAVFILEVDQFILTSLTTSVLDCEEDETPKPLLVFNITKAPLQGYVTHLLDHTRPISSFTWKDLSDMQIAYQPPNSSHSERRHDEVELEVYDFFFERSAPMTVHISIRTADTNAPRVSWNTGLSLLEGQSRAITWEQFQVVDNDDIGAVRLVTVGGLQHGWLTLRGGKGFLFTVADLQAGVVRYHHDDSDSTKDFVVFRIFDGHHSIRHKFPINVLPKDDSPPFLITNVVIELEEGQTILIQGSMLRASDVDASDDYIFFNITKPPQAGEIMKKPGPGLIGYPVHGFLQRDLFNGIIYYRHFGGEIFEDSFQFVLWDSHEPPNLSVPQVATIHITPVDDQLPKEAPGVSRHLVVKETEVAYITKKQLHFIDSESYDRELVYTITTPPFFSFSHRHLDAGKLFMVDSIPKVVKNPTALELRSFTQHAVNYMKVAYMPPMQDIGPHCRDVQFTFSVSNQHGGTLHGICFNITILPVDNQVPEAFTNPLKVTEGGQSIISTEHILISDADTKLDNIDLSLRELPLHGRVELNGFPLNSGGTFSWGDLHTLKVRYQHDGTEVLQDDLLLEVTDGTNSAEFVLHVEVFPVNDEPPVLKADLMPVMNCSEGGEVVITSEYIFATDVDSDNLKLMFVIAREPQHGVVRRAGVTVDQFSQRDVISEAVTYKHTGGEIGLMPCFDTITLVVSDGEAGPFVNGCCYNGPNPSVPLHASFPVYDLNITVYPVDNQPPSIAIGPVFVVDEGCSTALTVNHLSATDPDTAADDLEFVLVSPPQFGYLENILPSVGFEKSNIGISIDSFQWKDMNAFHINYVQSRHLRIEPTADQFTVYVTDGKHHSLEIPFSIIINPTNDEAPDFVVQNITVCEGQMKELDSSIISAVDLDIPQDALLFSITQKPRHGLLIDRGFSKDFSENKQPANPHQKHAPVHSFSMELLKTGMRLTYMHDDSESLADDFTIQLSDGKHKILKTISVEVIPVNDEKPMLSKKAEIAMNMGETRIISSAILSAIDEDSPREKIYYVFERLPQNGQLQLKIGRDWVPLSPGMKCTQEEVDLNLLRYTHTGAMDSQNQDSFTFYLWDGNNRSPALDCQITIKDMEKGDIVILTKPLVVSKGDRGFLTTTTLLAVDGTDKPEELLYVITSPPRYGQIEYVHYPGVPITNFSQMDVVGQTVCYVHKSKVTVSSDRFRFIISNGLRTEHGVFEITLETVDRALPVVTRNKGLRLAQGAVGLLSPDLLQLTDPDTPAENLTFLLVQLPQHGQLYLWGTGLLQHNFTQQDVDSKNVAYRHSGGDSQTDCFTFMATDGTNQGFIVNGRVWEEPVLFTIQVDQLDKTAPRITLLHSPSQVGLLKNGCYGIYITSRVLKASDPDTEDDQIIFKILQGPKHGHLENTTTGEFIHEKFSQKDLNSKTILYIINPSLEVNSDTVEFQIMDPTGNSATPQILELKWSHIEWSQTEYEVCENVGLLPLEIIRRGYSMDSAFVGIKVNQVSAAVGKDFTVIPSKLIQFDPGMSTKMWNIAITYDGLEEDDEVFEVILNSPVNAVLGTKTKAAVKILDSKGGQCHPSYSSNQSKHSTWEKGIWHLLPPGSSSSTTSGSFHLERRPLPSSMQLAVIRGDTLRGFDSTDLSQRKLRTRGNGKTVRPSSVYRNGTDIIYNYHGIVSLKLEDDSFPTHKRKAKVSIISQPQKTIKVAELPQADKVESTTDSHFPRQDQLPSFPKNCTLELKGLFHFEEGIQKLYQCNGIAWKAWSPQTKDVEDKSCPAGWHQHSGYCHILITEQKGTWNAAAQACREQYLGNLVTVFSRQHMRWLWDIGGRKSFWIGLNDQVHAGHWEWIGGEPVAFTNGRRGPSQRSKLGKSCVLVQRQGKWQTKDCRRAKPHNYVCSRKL

effect of a mutation on the interaction (frem1_human FREM1) | effect of a mutation on the interaction (frem2_human FREM2) | Substance
disrupting interaction strength |  | FRAS1-related extracellular matrix protein 2 (Homo sapiens), Q5SZK8 E1972K
 | disrupting interaction strength | FRAS1-related extracellular matrix protein 1 (Homo sapiens), Q5H8C1 L1324R
decreasing interaction strength |  | FRAS1-related extracellular matrix protein 2 (Homo sapiens), Q5SZK8 R2167W
 | disrupting interaction strength | FRAS1-related extracellular matrix protein 1 (Homo sapiens), Q5H8C1 R649W
